Results on twelve molecules are retold here after patent EP4778941A1 (Jiangsu Hengrui Pharmaceuticals Co., Ltd., dated 2025).

Experiment [1] addresses T1, Human HER3 protein on the cell surface (human, UniProt P21860 20-1342).
T1 construct: whole, on cells; also called HER3 single-positive cells (MDA-MB-453)
The experiment is described as follows: FACS on MDA-MB-453 cells (HER3 single-positive).

The target of experiment [2] is T1, Human HER3 protein on the cell surface. The experiment is described as follows: cell-based or functional assay.
In experiment [3] the target is Human HER3 and MET proteins together on HER3/MET double-positive cells (human, UniProt P21860 20-1342; P08581 25-1390). The experiment is described as follows: cell-based or functional assay.
Experiment [4] has as its target Human MET protein on the cell surface (human, UniProt P08581 25-1390). The experiment is described as follows: cell-based or functional assay.
In experiment [5] the target is T2, His-tagged human MET antigen (human, UniProt P08581 25-932).
T2 construct: Soluble antigen used as analyte in SPR; not shown: His tag
T2 sequence (P08581 25-932 limits assumed): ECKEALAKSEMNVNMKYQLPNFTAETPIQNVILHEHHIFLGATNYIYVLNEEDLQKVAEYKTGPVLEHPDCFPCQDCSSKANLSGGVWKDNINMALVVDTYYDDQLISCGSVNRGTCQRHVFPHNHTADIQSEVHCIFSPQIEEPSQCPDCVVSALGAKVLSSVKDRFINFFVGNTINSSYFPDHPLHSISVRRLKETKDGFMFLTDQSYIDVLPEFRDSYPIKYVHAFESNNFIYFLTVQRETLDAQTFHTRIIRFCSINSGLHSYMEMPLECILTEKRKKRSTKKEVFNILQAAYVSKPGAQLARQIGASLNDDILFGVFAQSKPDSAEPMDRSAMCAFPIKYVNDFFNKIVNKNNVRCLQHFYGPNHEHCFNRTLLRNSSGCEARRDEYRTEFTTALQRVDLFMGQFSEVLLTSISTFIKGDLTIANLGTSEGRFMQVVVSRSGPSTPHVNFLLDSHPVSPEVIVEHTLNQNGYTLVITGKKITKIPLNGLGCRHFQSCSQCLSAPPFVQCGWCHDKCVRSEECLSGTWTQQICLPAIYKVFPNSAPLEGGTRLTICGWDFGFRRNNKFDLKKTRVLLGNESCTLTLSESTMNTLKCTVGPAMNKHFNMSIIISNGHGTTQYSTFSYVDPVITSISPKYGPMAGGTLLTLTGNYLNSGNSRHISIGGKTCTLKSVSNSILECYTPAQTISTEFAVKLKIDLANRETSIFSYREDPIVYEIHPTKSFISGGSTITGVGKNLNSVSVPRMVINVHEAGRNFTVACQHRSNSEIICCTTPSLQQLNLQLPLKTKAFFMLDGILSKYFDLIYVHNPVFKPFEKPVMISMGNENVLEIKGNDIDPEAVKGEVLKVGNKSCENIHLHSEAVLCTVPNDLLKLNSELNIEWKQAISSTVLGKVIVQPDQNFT
The experiment is described as follows: SPR, Biacore 8K; antibody captured, His-tagged human MET antigen 6.25-400 nM as analyte; 1:1 Langmuir. (In general: Surface plasmon resonance follows binding to a sensor surface in real time, without labels.)

Experiment [6] has as its target T3, His-tagged human HER3 antigen (human, UniProt P21860 20-643).
T3 construct: Soluble antigen used as analyte in SPR; not shown: His tag
The experiment is described as follows: SPR, Biacore 8K; antibody captured, His-tagged human HER3 antigen 6.25-400 nM as analyte; 1:1 Langmuir.

Human MET protein on the cell surface, sequence (P08581 25-1390): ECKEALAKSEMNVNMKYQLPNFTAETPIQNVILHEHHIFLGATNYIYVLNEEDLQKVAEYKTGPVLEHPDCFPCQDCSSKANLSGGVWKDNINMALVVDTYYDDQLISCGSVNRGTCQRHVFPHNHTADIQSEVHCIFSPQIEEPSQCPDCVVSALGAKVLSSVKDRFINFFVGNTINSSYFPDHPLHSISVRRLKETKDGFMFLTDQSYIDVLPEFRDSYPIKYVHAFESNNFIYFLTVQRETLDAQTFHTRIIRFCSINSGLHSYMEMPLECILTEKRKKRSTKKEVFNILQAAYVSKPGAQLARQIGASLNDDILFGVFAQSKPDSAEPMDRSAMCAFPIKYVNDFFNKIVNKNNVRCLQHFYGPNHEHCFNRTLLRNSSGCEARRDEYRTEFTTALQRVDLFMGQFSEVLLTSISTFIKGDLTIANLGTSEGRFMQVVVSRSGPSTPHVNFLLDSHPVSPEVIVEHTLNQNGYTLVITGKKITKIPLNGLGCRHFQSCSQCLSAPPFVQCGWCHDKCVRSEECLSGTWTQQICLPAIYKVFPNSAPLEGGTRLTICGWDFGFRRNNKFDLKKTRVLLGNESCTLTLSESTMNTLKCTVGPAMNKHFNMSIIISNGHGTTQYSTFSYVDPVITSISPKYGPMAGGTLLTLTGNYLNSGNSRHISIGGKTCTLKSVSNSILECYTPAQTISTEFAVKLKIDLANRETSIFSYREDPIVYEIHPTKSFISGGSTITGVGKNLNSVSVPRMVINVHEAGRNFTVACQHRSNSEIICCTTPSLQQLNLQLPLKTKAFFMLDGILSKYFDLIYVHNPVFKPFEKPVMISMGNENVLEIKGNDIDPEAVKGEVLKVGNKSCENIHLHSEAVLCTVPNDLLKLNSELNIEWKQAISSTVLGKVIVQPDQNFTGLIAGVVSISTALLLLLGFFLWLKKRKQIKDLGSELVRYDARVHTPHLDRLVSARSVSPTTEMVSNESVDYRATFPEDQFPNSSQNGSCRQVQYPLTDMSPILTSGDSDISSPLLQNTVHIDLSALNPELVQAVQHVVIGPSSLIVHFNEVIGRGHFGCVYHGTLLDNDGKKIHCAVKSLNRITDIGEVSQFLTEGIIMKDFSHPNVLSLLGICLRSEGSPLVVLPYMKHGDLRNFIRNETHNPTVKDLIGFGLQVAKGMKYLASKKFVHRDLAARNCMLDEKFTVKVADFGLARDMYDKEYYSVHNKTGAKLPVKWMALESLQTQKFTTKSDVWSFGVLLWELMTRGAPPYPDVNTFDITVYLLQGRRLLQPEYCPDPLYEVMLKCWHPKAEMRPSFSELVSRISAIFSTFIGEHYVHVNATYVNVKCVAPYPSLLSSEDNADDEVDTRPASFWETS

B1: Anti-HER3/MET bispecific antibody 2232-02 (S3-A) (bispecific antibody, human IgG1, kappa)
heavy 1: not shown
light 1: DIVLTQSPDSLAVSLGERATINCRADKSVSTSTYNYLHWYQQKPGQPPKLLIYLASNLASGVPDRFSGSGSGTDFTLTISSLQAEDVAVYYCQHSRDLPPTFGQGTKLEIKGGGGSGIPPKIECLPIDISIDEGKVLTVASAFTGEPTPEVTWSTGGRKIHSQEQGRFHIENTDDSTTLTIKDVQKQDGGLYTLTLRNEFGSDSATVNIHIRSI
heavy 2: QVQLVQSGGGLVQPGRSLRLSCAASGFTFDDYAMHWVRQAPGKGLEWVSGISWNSGSIGYADSVKGRFTISRDNAKNSLYLQMNSLRAEDTALYYCAKEGLPGLDYWGQGTLVTVSSASTKGPSVFPLAPSSKSTSGGTAALGCLVKDYFPEPVTVSWNSGALTSGVHTFPAVLQSSGLYSLSSVVTVPSSSLGTQTYICNVNHKPSNTKVDKKVEPKSCDKTHTCPPCPAPELLGGPSVFLFPPKPKDTLMISRTPEVTCVVVDVSHEDPEVKFNWYVDGVEVHNAKTKPREEQYNSTYRVVSVLTVLHQDWLNGKEYKCKVSNKALPAPIEKTISKAKGQPREPQVCTLPPSREEMTKNQVSLSCAVKGFYPSDIAVEWESNGQPENNYKTTPPVLDSDGSFFLVSKLTVDKSRWQQGNVFSCSVMHEALHNHYTQKSLSLSPGK
light 2: DIQMTQSPSSLSASIGDRATITCRASQHVGTYLNWYQQKPGKTPKLLISGAANLQSGVPSRFSGSGSGTDFTLTISSLQPEDFATYYCQQSYNTPPFSFGQGTKVEIKRTVAAPSVFIFPPSDEQLKSGTASVVCLLNNFYPREAKVQWKVDNALQSGNSQESVTEQDSKDSTYSLSSTLTLSKADYEKHKVYACEVTHQGLSSPVTKSFNRGEC
Take B1: in experiment [1], the EC50 was determined as 2.64 nM and the Maximum fluorescence value was found to be 1870. In addition, the “Minimum cell viability (%)” value in experiment [2] is 25.8%.

B2: Anti-HER3/MET bispecific antibody P8-A (bispecific antibody, human IgG1, kappa)
heavy 1: not shown
light 1: NFMLTQPHSVSESPGKTVTISCTRSSGSIAFDYVQWYQQRPGSAPTTVIYEDNQRPSGVPDRFSASIDSSSNSASLTISALKTEDEADYYCQSYDNSNSWVFGGGTKLTVLGGGGSGIPPKIECLPIDISIDEGKVLTVASAFTGEPTPEVTWSTGGRKIHSQEQGRFHIENTDDSTTLTIKDVQKQDGGLYTLTLRNEFGSDSATVNIHIRSI
heavy 2: QVQLVQSGGGLVQPGRSLRLSCAASGFTFDDYAMHWVRQAPGKGLEWVSGISWNSGSIGYADSVKGRFTISRDNAKNSLYLQMNSLRAEDTALYYCAKEGLPGLDYWGQGTLVTVSSASTKGPSVFPLAPSSKSTSGGTAALGCLVKDYFPEPVTVSWNSGALTSGVHTFPAVLQSSGLYSLSSVVTVPSSSLGTQTYICNVNHKPSNTKVDKKVEPKSCDKTHTCPPCPAPELLGGPSVFLFPPKPKDTLMISRTPEVTCVVVDVSHEDPEVKFNWYVDGVEVHNAKTKPREEQYNSTYRVVSVLTVLHQDWLNGKEYKCKVSNKALPAPIEKTISKAKGQPREPQVCTLPPSREEMTKNQVSLSCAVKGFYPSDIAVEWESNGQPENNYKTTPPVLDSDGSFFLVSKLTVDKSRWQQGNVFSCSVMHEALHNHYTQKSLSLSPGK
light 2: DIQMTQSPSSLSASIGDRATITCRASQHVGTYLNWYQQKPGKTPKLLISGAANLQSGVPSRFSGSGSGTDFTLTISSLQPEDFATYYCQQSYNTPPFSFGQGTKVEIKRTVAAPSVFIFPPSDEQLKSGTASVVCLLNNFYPREAKVQWKVDNALQSGNSQESVTEQDSKDSTYSLSSTLTLSKADYEKHKVYACEVTHQGLSSPVTKSFNRGEC
Consider B2, for which the “Minimum cell viability (%)” value in experiment [3] worked out at 12.1%.

B3: Anti-MET antibody S3 (antibody, human IgG2, kappa, V domains shown)
VH: QVQLVESGGGVVQPGRSLRLSCAASGFSLSNYGVHWVRQAPGKGLEWLAVIWSGGSTNYAAAFVSRLTISKDNSKNTVYLQMNSLRAEDTAVYYCARNHDNPYNYAMDYWGQGTTVTVSS
VL: DIVLTQSPDSLAVSLGERATINCRADKSVSTSTYNYLHWYQQKPGQPPKLLIYLASNLASGVPDRFSGSGSGTDFTLTISSLQAEDVAVYYCQHSRDLPPTFGQGTKLEIKR
In experiment [1], B3 had a Maximum fluorescence value of 77. Also, the “Minimum cell viability (%)” value in experiment [2] stood at 97.3%.

B4: Anti-MET antibody A13 (antibody, human IgG1, kappa, V domains shown)
VH: QVQLVQSGAEVKKPGASVKVSCEASGYTFTSYGFSWVRQAPGQGLEWMGWISASNGNTYYAQKLQGRVTMTTDTSTSSAYMELRSLRSDDTAVYYCARVYADYADYWGQGTLVTVSS
VL: DIQMTQSPSSVSASVGDRVTITCRASQGINTWLAWYQQKPGKAPKLLIYAASSLKSGVPSRFSGSGSGADFTLTISSLQPEDFATYYCQQANSFPLTFGGGTKVEIKR
Take B4: in experiment [4], the “Endocytosis ratio at 0 h (FACS)” value is 0%, the “Endocytosis ratio at 0.5 h (FACS)” value came out at 25.7%, the “Endocytosis ratio at 2 h (FACS)” value came to 45.7% and the “Endocytosis ratio at 6 h (FACS)” value was 57.6%. In experiment [5], this molecule yielded a Kd of 6.55 nM, a koff of 0.000614 s⁻¹ and a kon of 93800 M⁻¹ s⁻¹.

B5: Antibody A13 N30T (antibody, human IgG1, kappa, V domains shown)
VH: QVQLVQSGAEVKKPGASVKVSCEASGYTFTSYGFSWVRQAPGQGLEWMGWISASNGNTYYAQKLQGRVTMTTDTSTSSAYMELRSLRSDDTAVYYCARVYADYADYWGQGTLVTVSS
VL: DIQMTQSPSSVSASVGDRVTITCRASQGITTWLAWYQQKPGKAPKLLIYAASSLKSGVPSRFSGSGSGADFTLTISSLQPEDFATYYCQQANSFPLTFGGGTKVEIKR
notes: Differs from antibody A13 only by N to T at position 30 of VL
In experiment [5], B5 registered a Kd of 17 nM, a koff of 0.0018 s⁻¹ and a kon of 106000 M⁻¹ s⁻¹.

B6: Antibody A13 T31V (antibody, human IgG1, kappa, V domains shown)
VH: QVQLVQSGAEVKKPGASVKVSCEASGYTFTSYGFSWVRQAPGQGLEWMGWISASNGNTYYAQKLQGRVTMTTDTSTSSAYMELRSLRSDDTAVYYCARVYADYADYWGQGTLVTVSS
VL: DIQMTQSPSSVSASVGDRVTITCRASQGINVWLAWYQQKPGKAPKLLIYAASSLKSGVPSRFSGSGSGADFTLTISSLQPEDFATYYCQQANSFPLTFGGGTKVEIKR
notes: Differs from antibody A13 only by T to V at position 31 of VL
Take B6: in experiment [5], the Kd was determined as 93.1 nM, the koff came out at 0.00521 s⁻¹ and the kon stood at 56000 M⁻¹ s⁻¹.

B7: Antibody A13 N30S (antibody, human IgG1, kappa, V domains shown)
VH: QVQLVQSGAEVKKPGASVKVSCEASGYTFTSYGFSWVRQAPGQGLEWMGWISASNGNTYYAQKLQGRVTMTTDTSTSSAYMELRSLRSDDTAVYYCARVYADYADYWGQGTLVTVSS
VL: DIQMTQSPSSVSASVGDRVTITCRASQGISTWLAWYQQKPGKAPKLLIYAASSLKSGVPSRFSGSGSGADFTLTISSLQPEDFATYYCQQANSFPLTFGGGTKVEIKR
notes: Differs from antibody A13 only by N to S at position 30 of VL
On to B7, for which, in experiment [5], the affinity, expressed as Kd, was 7.69 nM; the koff was 0.000776 s⁻¹; the kon was 101000 M⁻¹ s⁻¹.

B8: Antibody A13 N30Q (antibody, human IgG1, kappa, V domains shown)
VH: QVQLVQSGAEVKKPGASVKVSCEASGYTFTSYGFSWVRQAPGQGLEWMGWISASNGNTYYAQKLQGRVTMTTDTSTSSAYMELRSLRSDDTAVYYCARVYADYADYWGQGTLVTVSS
VL: DIQMTQSPSSVSASVGDRVTITCRASQGIQTWLAWYQQKPGKAPKLLIYAASSLKSGVPSRFSGSGSGADFTLTISSLQPEDFATYYCQQANSFPLTFGGGTKVEIKR
notes: Differs from antibody A13 only by N to Q at position 30 of VL
As to B8, in experiment [5], the Kd was 17.6 nM, the off-rate (koff) stood at 0.00146 s⁻¹ and the kon stood at 83000 M⁻¹ s⁻¹.

B9: Antibody A N93Q (antibody, human IgG1, kappa, V domains shown)
VH: QVQLVQSGGGLVQPGRSLRLSCAASGFTFDDYAMHWVRQAPGKGLEWVSGISWNSGSIGYADSVKGRFTISRDNAKNSLYLQMNSLRAEDTALYYCAKEGLPGLDYWGQGTLVTVSS
VL: DIQMTQSPSSLSASIGDRATITCRASQHVGTYLNWYQQKPGKTPKLLISGAANLQSGVPSRFSGSGSGTDFTLTISSLQPEDFATYYCQQSYQTPPFSFGQGTKVEIKR
notes: Differs from antibody A only by N to Q at position 93 of VL
In experiment [6], B9 displayed a Kd of 51.4 nM, a koff of 0.0295 s⁻¹ and a kon of 573000 M⁻¹ s⁻¹.

B10: Antibody A N93S (antibody, human IgG1, kappa, V domains shown)
VH: QVQLVQSGGGLVQPGRSLRLSCAASGFTFDDYAMHWVRQAPGKGLEWVSGISWNSGSIGYADSVKGRFTISRDNAKNSLYLQMNSLRAEDTALYYCAKEGLPGLDYWGQGTLVTVSS
VL: DIQMTQSPSSLSASIGDRATITCRASQHVGTYLNWYQQKPGKTPKLLISGAANLQSGVPSRFSGSGSGTDFTLTISSLQPEDFATYYCQQSYSTPPFSFGQGTKVEIKR
notes: Differs from antibody A only by N to S at position 93 of VL
Consider B10, for which, in experiment [6], the Kd amounted to 32.6 nM, the koff stood at 0.0215 s⁻¹ and the kon is 659000 M⁻¹ s⁻¹.

B11: Antibody A N93T (antibody, human IgG1, kappa, V domains shown)
VH: QVQLVQSGGGLVQPGRSLRLSCAASGFTFDDYAMHWVRQAPGKGLEWVSGISWNSGSIGYADSVKGRFTISRDNAKNSLYLQMNSLRAEDTALYYCAKEGLPGLDYWGQGTLVTVSS
VL: DIQMTQSPSSLSASIGDRATITCRASQHVGTYLNWYQQKPGKTPKLLISGAANLQSGVPSRFSGSGSGTDFTLTISSLQPEDFATYYCQQSYTTPPFSFGQGTKVEIKR
notes: Differs from antibody A only by N to T at position 93 of VL
In experiment [6], B11 displayed a Kd of 97.9 nM, a koff of 0.0329 s⁻¹ and an on-rate constant (kon) of 336000 M⁻¹ s⁻¹.

B12: Antibody A T94V (antibody, human IgG1, kappa, V domains shown)
VH: QVQLVQSGGGLVQPGRSLRLSCAASGFTFDDYAMHWVRQAPGKGLEWVSGISWNSGSIGYADSVKGRFTISRDNAKNSLYLQMNSLRAEDTALYYCAKEGLPGLDYWGQGTLVTVSS
VL: DIQMTQSPSSLSASIGDRATITCRASQHVGTYLNWYQQKPGKTPKLLISGAANLQSGVPSRFSGSGSGTDFTLTISSLQPEDFATYYCQQSYNVPPFSFGQGTKVEIKR
notes: Differs from antibody A only by T to V at position 94 of VL
Take B12: in experiment [6], binding was put at a Kd of 15 nM, the koff is 0.0108 s⁻¹ and the kon was 717000 M⁻¹ s⁻¹.

In general, EC50 refers to the concentration needed to bring the measured effect to its halfway point. Higher therefore signals a less potent agent. One may read the Kd as the concentration at which binding is half-saturated. A word on the koff: it is the first-order rate constant of dissociation. One may read the kon as the rate constant with which the complex forms. Low values mean slow association, high ones fast association.
